According to publication PMC8869655, “Identification of the Kinase-Substrate Recognition Interface between MYPT1 and Rho-Kinase” (Biomolecules, 2022):
Substitutions are numbered along the chain they refer to. One block for each molecule: values may come before it.

Assays:
[1] = test system: NIH3T3 cells; test: Actin stress fiber formation in NIH3T3 cells; format: cell-based; details: GST-MYPT1 fragment expressed in NIH3T3 cells, 24 h, phalloidin staining, N = 4
Description: NIH3T3 cells were seeded on polylysine-coated 13-mm coverslips at a density of 4 × 10^4 cells/well in a 6-well dish and cultured in DMEM with 10% calf serum overnight. The cells were transfected with plasmid using LIPOFECTAMINE LTX reagent (Thermo Fisher Scientific, Waltham, MA, USA), according to the manufacture’s protocol. After 24 h, the cells were incubated in fresh DMEM containing 10% calf serum for 20 min, fixed with 3.7% formaldehyde in PBS for 10 min and then treated with PBS containing 0.2% Triton X-100 for 10 min. The fixed cells were blocked with 1% bovine serum albumin for 30 min and stained with the indicated antibodies. Cover slips were mounted with Fluoromount (Diagnostic Biosystems, Pleasanton, CA, USA) and the fluorescence was examined using a confocal laser scanning microscope LSM 780 and LSM5 PASCAL built around an Axio Observer Z1 or Axiovert 200M under the control of LSM software (Carl Zeiss, Oberkochen, Germany). Images were processed using ImageJ or Photoshop (Adobe, San Jose, CA, USA).
Figure 3 Inhibition of MYPT1 phosphorylation by the Rho-kinase-binding fragment of MYPT1. (A,B) Effect of the overexpression of Rho-kinase-binding MYPT1 fragments on GFP-MYPT1 phosphorylation in COS7 cells. Full-length GFP-MYPT1 and the GST-MYPT1 Rho-kinase binding fragment were transiently expressed in COS7 cells. The cell lysates were analyzed by immunoblot analysis using anti-MYPT1-pT855 (top panel), anti-GFP (middle), or anti-GST (bottom) antibodies. The phospho-GFP-MYPT1 levels were quantified and normalized by GFP-MYPT1 levels. Data represent means ± SD. **, p < 0.01, ***, p < 0.001 as compared with the control. (C) Effect of the overexpression of Rho-kinase-binding MYPT1 fragments on stress fiber formation in NIH3T3 cells. GST-MYPT1 fragments were expressed in NIH3T3 cells. The cells were fixed in formaldehyde, and immunostained with phalloidin and anti-GST antibody. […] The percentages of cells with stress fibers throughout the cell (SF(++)), cells with stress fibers partly in the cell (SF(+)), and cells without stress fibers (SF(–)) were analyzed. […]

[2] = test system: phosphorylation of GFP-MYPT1 at Thr855 in COS7 cells; test: Phosphorylation of GFP-MYPT1 in COS7 cells; format: cell-based; details: GST-MYPT1 fragment coexpressed with full-length GFP-MYPT1 in COS7 cells, 24 h, immunoblot anti-MYPT1-pT855 normalized by GFP-MYPT1
Description: COS7 cells were seeded on a 6-well dish at a density of 1.8 × 10^5 cells/well in DMEM with 10% fetal bovine serum and cultured overnight. The cells were transfected with plasmids using LIPOFECTAMINE 2000^TM reagent, according to the manufacture’s protocol. After 24 h, the cells were washed twice with PBS, lysed in SDS–PAGE sample buffer and, subjected to immunoblot analysis using the indicated antibodies. The signals were visualized using HRP-conjugated secondary antibody and ECL prime detecting reagent (Cytiva, Marlborough, MA, USA) by X-lay film or imaging analyzer LAS 4010 (Cytiva, Marlborough, MA, USA). Signal intensities of phospho-GFP-MYPT1 and GFP-MYPT1 were analyzed using Fiji software and quantified from standard curves. The phospho-GFP-MYPT1 levels were normalized by GFP-MYPT1 levels.
Figure 3 Inhibition of MYPT1 phosphorylation by the Rho-kinase-binding fragment of MYPT1. […] The cell lysates were analyzed by immunoblot analysis using anti-MYPT1-pT855 (top panel), anti-GFP (middle), or anti-GST (bottom) antibodies. The phospho-GFP-MYPT1 levels were quantified and normalized by GFP-MYPT1 levels. […] The percentages of cells with stress fibers throughout the cell (SF(++)), cells with stress fibers partly in the cell (SF(+)), and cells without stress fibers (SF(–)) were analyzed. […]

[3] = target: T1, GST-Rho-kinase-cat-L (bovine, residues 6–553) (Bos taurus, UniProt Q28021); test: In vitro kinase assay, Rho-kinase-cat-L activity; format: biochemical; details: S6 rsk substrate peptide as substrate, 50 μM γ-[32P]ATP, 30 °C, inhibitor at the indicated concentrations, scintillation counting, N = 3
T1 construct: GST-Rho-kinase-cat-L (bovine, residues 6–553); made in house; host or cells: Sf9 cells (baculovirus)
Description: (§1) The kinase reactions were performed in 50 μL of a reaction mixture (25 mM Tris-HCl, pH 7.5, 1 mM EDTA, 1 mM EGTA, 1 mM DTT, 5 mM MgCl2, and 50 μM γ-[^32P]ATP [1–20 GBq/mmol]), GST-Rho-kinase-cat-L or other kinases (1–10 nM), and substrates for 10–20 min at 30 °C. The reaction mixtures were applied to cation-exchange membranes and washed with 75 mM phosphoric acid three times, which was followed by scintillation counting.
Figure 4 Direct inhibition of Rho-kinase activity in vitro. (A) In vitro phosphorylation of S6 rsk substrate peptide by Rho-kinase. GST-Rho-kinase-cat-L or GST-ROCK1-cat-L activity was examined using the S6 rsk substrate peptide as a substrate in the presence of γ-[^32P]ATP. GST-MYPT1-684–868 aa-WT or -4A was added at the indicated concentrations. The reaction mixtures were applied onto cation-exchange membranes, followed by scintillation counting. N = 3. (B) Effects of the deletion of DMs on the inhibition of Rho-kinase activity in vitro. GST-Rho-kinase-cat-L activity was examined using the S6 rsk substrate peptide as a substrate in the presence of γ-[^32P]ATP. GST-MYPT1-684–868-4A with or without DMs was added at the indicated concentrations. The reaction mixtures were applied onto cation-exchange membranes, followed by scintillation counting. N = 3. The deletion of DM1 or DM2 moderately weakened the inhibitory effect and the deletion of both DM1 and DM2 completely abrogated the inhibitory effects of the MYPT1 fragment on the Rho-kinase activity. (C) Sequences of the DMs and phosphorylation sites of MYPT1. The sequences of MYPT1 683–715 aa and 836-860 aa and synthetic peptides are shown. Basic (blue), acidic (red), and aliphatic (green) amino acids within DMs are indicated. Phosphorylation sites are replaced by Ala in pseudosubstrate (PS) peptides. (D) Inhibition of Rho-kinase activity by PS2 + DM2 synthetic peptide. GST-Rho-kinase-cat-L activity was examined using the S6 rsk substrate peptide as a substrate in the presence of γ-[^32P]ATP. Synthetic peptides were added at the indicated concentrations. The reaction mixtures were applied onto cation-exchange membranes, followed by scintillation counting. N = 3. (E) Inhibition of Rho-kinase activity by PS1 + DM3 synthetic peptide. GST-Rho-kinase-cat-L activity was examined using the S6 rsk substrate peptide as a substrate in the presence of γ-[^32P]ATP. Synthetic peptides were added at the indicated concentrations. The reaction mixtures were applied onto cation-exchange membranes, followed by scintillation counting. N = 3.

[4] = target: T1, GST-Rho-kinase-cat-L (bovine, residues 6–553); test: In vitro kinase assay, Rho-kinase-cat-L activity; format: biochemical; details: 1 µM inhibitory fragment, Figure S3A, N=3
[5] = test system: GST-PKACα; test: In vitro kinase assay, PKA activity; format: biochemical; details: S6 rsk substrate peptide (40 µM) as substrate, γ-[32P]ATP, N=3, Figure S3B
Description: as §1
(§2) Supplem entary Figure S3. Inhibition of the kinase activity by the MYPT1-684-868 aa-4A […]
(§3) (A) In vitro phosphorylation of various substrates by Rho -kinase. S6 rsk substrate peptide (40 µM), GST-MYPT1 fragments (0.5 µM), GST-MLC (0.5 µM), or GST-Scrib-C (1235-1630 aa) (0.5 µM) was phosphorylated by GS T-Rho-kinase-cat-L with 1 µM GST or GST-MYPT1-684-868 aa-4A in the presence of γ-[32P]ATP. Data represent means ± SD. N=3. (B ) GS T-Rho-kinase-cat-L, GST-MRCKβ-cat-L, and GST-PKACα activities were examined using the S6 rsk substrate peptide (40 µM) as a substrate in the presence of γ-[32P]ATP and GST-MYPT1-684-868 aa-4A fragment at the indicated concentrations. The reaction mixtures were applied onto cation-exchange membranes, followed by scintillation counting. Data represent means ± SD. N=3.
(§4) (1 picture or pasted object on this page, not shown here)

[6] = test system: GST-MRCKβ-cat-L (human, residues 1–550); test: In vitro kinase assay, MRCKβ activity; format: biochemical; details: S6 rsk substrate peptide (40 µM) as substrate, γ-[32P]ATP, N=3, Figure S3B
Description: as §1, §2, §3, §4

T1 sequence (Q28021 6-553): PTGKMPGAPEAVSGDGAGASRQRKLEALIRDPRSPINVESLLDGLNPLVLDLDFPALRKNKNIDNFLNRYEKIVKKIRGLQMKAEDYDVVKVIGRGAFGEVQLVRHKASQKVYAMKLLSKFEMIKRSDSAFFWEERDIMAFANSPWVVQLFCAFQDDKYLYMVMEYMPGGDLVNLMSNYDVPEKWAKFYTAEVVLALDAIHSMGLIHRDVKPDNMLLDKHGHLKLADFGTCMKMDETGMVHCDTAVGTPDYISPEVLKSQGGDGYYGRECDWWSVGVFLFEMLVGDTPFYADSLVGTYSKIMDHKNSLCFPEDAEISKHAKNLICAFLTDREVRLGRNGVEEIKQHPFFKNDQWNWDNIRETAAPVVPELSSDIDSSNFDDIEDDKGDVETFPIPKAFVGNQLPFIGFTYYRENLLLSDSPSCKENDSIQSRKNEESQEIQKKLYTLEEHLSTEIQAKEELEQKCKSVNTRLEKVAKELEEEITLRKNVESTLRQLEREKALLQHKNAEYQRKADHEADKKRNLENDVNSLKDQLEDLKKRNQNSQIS

B1: MYPT1-684–868 aa: GST-fused rat MYPT1 fragment 684–868 aa containing DMs and four phosphorylation sites (protein)
chain: KARSRQARQSRRSTQGVTLTDLQEAEKTIGRSRSTRTREQENEEKDKEEKEKQDKEKQEEKKESEVSREDEYKQKYSRTYDETYARYRPVSTSSSSTPSSSSLSTLGSSLYASSQLNRPNSLVGITSAYSRGLTKDNEREGEKKEEEKEGEDKSQPKSIRERRRPREKRRSTGVSFWTQDSDENE
modifications: left off: GST, end not stated, kept
notes: GST-fused rat MYPT1 fragment 684–868 aa containing DMs and four phosphorylation sites
Effect on actin stress fiber formation [1]: reduced actin stress fibers
Effect on phosphorylation of GFP-MYPT1 at Thr855 [2]: strongly inhibited
Inhibition of Rho-kinase-cat-L activity (in words) [3]: inhibited the Rho-kinase-cat-L activity in a dose-dependent manner

Inhibition of phosphorylation of MLC by Rho-kinase ([4]; substrate GST-MLC (0.5 µM)): inhibited
Inhibition of phosphorylation of MYPT1 by Rho-kinase ([4]; substrate GST-MYPT1 fragments (0.5 µM)): much weaker
Inhibition of phosphorylation of Scrib by Rho-kinase ([4]; substrate GST-Scrib-C (1235-1630 aa) (0.5 µM)): inhibited
Inhibition of PKA activity (in words) [5]: did not inhibit
Inhibition of MRCKβ activity (in words) [6]: moderately inhibited
Inhibition of Rho-kinase-cat-L activity (in words) [3]: inhibited the Rho-kinase-cat-L activity
B2: MYPT1-684–868 aa-4A: GST-fused rat MYPT1 fragment 684–868 aa with the four phosphorylation sites replaced with Ala (protein)
chain: B1 chain with S13A, T14A, S171A, T172A
modifications: left off: GST, end not stated, kept
notes: GST-fused rat MYPT1 fragment 684–868 aa with the four phosphorylation sites replaced with Ala
Effect on actin stress fiber formation [1]: reduced actin stress fibers

B3: MYPT1-655-715 aa: GST-fused MYPT1 fragment 655–715 aa (protein, UniProt Q10728 655-715, looked up, fragment)
chain: GTLSSTSEVRERRRSYLTPVRDEESESQRKARSRQARQSRRSTQGVTLTDLQEAEKTIGRS
modifications: also: GST fusion
notes: GST-fused MYPT1 fragment 655–715 aa
Effect on actin stress fiber formation [1]: rather enhanced stress fiber formation
Effect on phosphorylation of GFP-MYPT1 at Thr855 [2]: decreased the phosphorylation of MYPT1
